KR20220139244A (dated 2022)
Like-named read-outs stand apart in the source and are kept apart here.

Experiments:
Test in all cases: cell-based or functional assay
[1] = target: T1, SARS-CoV-2 spike D614 (pseudovirus) (SARS-CoV-2, UniProt P0DTC2 14-1273)
[2] = target: T1, SARS-CoV-2 spike D614 (pseudovirus); remark: listed apart in the source
[3] = target: T1, SARS-CoV-2 spike D614 (pseudovirus); remark: listed apart in the source
[4] = target: T1, SARS-CoV-2 spike D614 (pseudovirus); remark: listed apart in the source
[5] = target: T1, SARS-CoV-2 spike D614 (pseudovirus); remark: listed apart in the source

B1: No. 139 antibody (Full IgG) (antibody, V domains shown)
VH: QITLKESGPTLVKPTQTLTLTCSFSGFSLSTSGVGVGWIRQPPGKALEWLALIDWDDNKYHTTSLKTRLTISKDTSKNQVVLTMTNMDPVDTATYYCARIPGFLRYRNRYYYYGMDVWGQGTTVTVSS
VL: ELVLTQPPSVSAAPGQKVTISCSGSSSNIGNNYVSWYQQLPGTAPKLLIYDNNKRPSGIPDRFSGSKSGTSATLGITGLQTGDEADYYCGTWDSSLSAGVFGGGTELTVL
IC50 [1]: 0.378 ng/mL
IC50 [2]: 0.35 ng/mL
IC50 [3]: 0.535 ng/mL
IC50 [4]: 0.535 ng/mL

B2: No. 32 antibody (Full IgG; Table 3/4 numbering) (antibody, V domains shown)
VH: EVQLVQSGGGLIQPGGSLRLSCAASEFIVSSNYMTWVRQAPGKGLEWVSIIYPGGSTYYADSVKGRFTISRDNSKNTLYLRMNSLRAEDTAVYYCARDLPLTGTTLDYWGQGTLVTVSS
VL: not shown
IC50 [5]: 4.34 ng/mL
IC50 [4]: 4.34 ng/mL
